# According to article PMC4643140, “Low-Temperature-Induced Expression of Rice Ureidoglycolate Amidohydrolase is Mediated by a C-Repeat/Dehydration-Responsive Element that Specifically Interacts with Rice C-Repeat-Binding Factor 3”:
# B1: E2 (dsDNA)
# DNA 1: AGCGTAGCTGCGGCGGAGAGCTCGCCGCCGACCCGCCCGGAGATTGGTTGCTTGCGCTG
# DNA 2: CAGCGCAAGCAACCAATCTCCGGGCGGGTCGGCGGCGAGCTCTCCGCCGCAGCTACGCT
# Molecular target: GST-OsCBF3 (Oryza sativa (rice), UniProt Q64MA1 1-238)
# Assay: EMSA; 20 fmol probe, 1 ug protein; unlabeled E2 (2 pmol) competes; 20 uL reactions, Light-Shift Chemiluminescent EMSA Kit per manufacturer; buffer, salt, pH and temperature not stated
# Details: protein: recombinant; tags: N-terminal GST (pGEX-4T-1); label: biotin on probe; blunt
# Sequence of GST-OsCBF3 (Q64MA1 whole entry): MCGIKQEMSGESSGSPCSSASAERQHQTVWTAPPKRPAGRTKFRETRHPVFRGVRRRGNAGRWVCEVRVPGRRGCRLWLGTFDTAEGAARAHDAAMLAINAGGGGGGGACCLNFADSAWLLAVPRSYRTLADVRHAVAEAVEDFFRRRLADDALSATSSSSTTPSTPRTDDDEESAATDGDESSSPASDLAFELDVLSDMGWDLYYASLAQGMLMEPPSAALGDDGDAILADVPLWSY
binder,measurement,value
B1,binding result,binds
